Publication PMC6168492, “Human and mouse albumin bind their respective neonatal Fc receptors differently” (Scientific Reports, 2018)

Tests used:
[1] = target: T1, wild-type mouse serum albumin with C-terminal GST (mouse, UniProt P07724 25-608); test: SPR; receptor binding to immobilised albumin at pH 5.5 in the presence of 0.005% Tween-20 instead of 0.05%; settings: both partners purified
T1 construct: mouse serum albumin; also called MSA WT; WT MSA; source: HEK293E, transiently transfected, purified from supernatant (GSTrap FF); not shown: GST (Schistosoma japonicum), C-terminal, kept
T1 sequence (P07724 25-608): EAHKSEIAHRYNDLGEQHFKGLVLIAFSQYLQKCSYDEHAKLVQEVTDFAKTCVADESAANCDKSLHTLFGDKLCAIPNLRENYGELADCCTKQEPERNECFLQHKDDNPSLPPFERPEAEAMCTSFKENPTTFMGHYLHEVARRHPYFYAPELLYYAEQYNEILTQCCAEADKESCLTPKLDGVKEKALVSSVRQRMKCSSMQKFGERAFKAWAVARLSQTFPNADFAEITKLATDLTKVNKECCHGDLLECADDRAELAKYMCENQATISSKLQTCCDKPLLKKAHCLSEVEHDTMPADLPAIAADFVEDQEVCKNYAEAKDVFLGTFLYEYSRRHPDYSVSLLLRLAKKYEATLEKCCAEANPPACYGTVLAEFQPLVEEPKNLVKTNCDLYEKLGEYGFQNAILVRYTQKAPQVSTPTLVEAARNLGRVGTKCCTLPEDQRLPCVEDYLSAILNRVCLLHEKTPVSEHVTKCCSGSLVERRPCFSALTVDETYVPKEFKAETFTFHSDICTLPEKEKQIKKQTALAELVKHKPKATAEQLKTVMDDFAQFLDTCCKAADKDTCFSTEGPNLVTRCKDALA

[2] = target: T1, wild-type mouse serum albumin with …; test: SPR; Biacore T200; albumin variants amine-coupled on CM5 (~200 or 500 RU); monomeric His-tagged hFcRn or mFcRn injected in serial dilutions; phosphate buffer (177 mM phosphate, 85 mM NaCl, 0.05% Tween 20) pH 5.5, 30 µl/min, 25 °C; 1:1 Langmuir model; settings: both partners purified

fold change of KD in 0.005% against 0.05% Tween-20 [1]: 1.7 fold
Kd [2]: 547 nM
koff [2]: 0.0164 s⁻¹
kon [2]: 30000 M⁻¹ s⁻¹
B1: soluble monomeric His-tagged mouse neonatal Fc receptor (mFcRn) (receptor)
chain: SETRPPLMYHLTAVSNPSTGLPSFWATGWLGPQQYLTYNSLRQEADPCGAWMWENQVSWYWEKETTDLKSKEQLFLEALKTLEKILNGTYTLQGLLGCELASDNSSVPTAVFALNGEEFMKFNPRIGNWTGEWPETEIVANLWMKQPDAARKESEFLLNSCPERLLGHLERGRRNLEWKEPPSMRLKARPGNSGSSVLTCAAFSFYPPELKFRFLRNGLASGSGNCSTGPNGDGSFHAWSLLEVKRGDEHHYQCQVEHEGLAQPLTVDLDSSARSS
b2m: IQKTPQIQVYSRHPPENGKPNILNCYVTQFHPPHIEIQMLKNGKKIPKVEMSDMSFSKDWSFYILAHTEFTPTETDTYACRVKHASMAEPKTVYWDRDM
notes: neonatal Fc receptor heavy chain, mouse, soluble form; beta2-microglobulin, non-covalently associated with the heavy chain; Surmised: the His tag sits on the truncated heavy chain; also called mouse FcRn; the mouse receptor
